Data as given in the supplement of paper PMC10724198.
± gives the standard deviation of the averaged measurements.

Each sequence was assayed on Saccharomyces cerevisiae (assay: protein stability index of tFT-peptide fusion (C-terminal peptide) (PSI (0-1 scale)); higher = more stable (slower turnover)). Conditions: genetic background: wild type; temperature: 30 C.
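Further: PSI is a weighted mean of sequencing reads over stability bins, variants kept only with over 10 reads, mCherry proximal and sfGFP distal, peptide attached via GGGS linker.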

Sequence	protein stability index
LPPPTPPPPLLP	0.779 ± 0.093
LPPPTSFPSFPP	0.724 ± 0.027
LPPRSPLYPLPP	0.613 ± 0.018
LPPSPPTVPSPP	0.67 ± 0.027
LPPSSLPLPCLL	0.793 ± 0.21
LPPSSSPSYIFS	0.744 ± 0.047
LPPTPSSPPPPL	0.709 ± 0.06
LPPVQARDPNWQ	0.6367 ± 0.0014
LPQTVPPPPSPP	0.624 ± 0.06
LPRALLLHGHRP	0.771 ± 0.067
LPRFRNRFPRRW	0.664 ± 0.036
LPRLHLSPASPP	0.611 ± 0.048
LPSARSLVSPSP	0.74 ± 0.0092
LPSPAFLTPPPL	0.788 ± 0.1
LPSPHPPPPPAH	0.727 ± 0.081
LPSPISLSPPLP	0.652 ± 0.051
LPSPPPLISLIP	0.644 ± 0.12
LPSPRRPPTPSA	0.657 ± 0.015
LPSPSSSPPPFP	0.7274 ± 0.0013
LPSRLPPQPSPA	0.687 ± 0.071
LPTLFPSAPSAI	0.664 ± 0.05
LPVPLFPLFLTS	0.573 ± 0.011
LPVPTLGRPLSL	0.69 ± 0.034

Sequence	protein stability index
LPVVGLVPPARS	0.5103 ± 0.003
LPYSAPPISLTN	0.702 ± 0.011
LQCAVPPRDLTS	0.645 ± 0.074
LQHCSAPLLTNS	0.74 ± 0.085
LQLKNTNKNKTT	0.666 ± 0.047
LQPPAPPSPQSD	0.702 ± 0.081
LRAPRGEFHWFL	0.684 ± 0.11
LRAVCDLTGSRV	0.68 ± 0.072
LRCCGGCGVCAL	0.686 ± 0.03
LRCLTIILYSMV	0.549 ± 0.033
LRCPLPFFSAFF	0.704 ± 0.11
LRDIEEIHRRGA	0.782 ± 0.013
LRDLLVFCDLFR	0.695 ± 0.0082
LRDQEYAMRPPC	0.693 ± 0.08
LRDWCMLGELAR	0.742 ± 0.014
LREENKKSETKR	0.705 ± 0.027
LRFRTVTRSGLR	0.626 ± 0.048
LRGDGGLFGDSG	0.655 ± 0.035
LRGLAVWCGYFS	0.619 ± 0.02
LRGRRPFSQRAT	0.662 ± 0.034
LRGRYNDVRHGK	0.708 ± 0.053
LRHSCSTYRIFS	0.683 ± 0.028
LRIGVEAGRAHR	0.648 ± 0.033

Sequence	protein stability index
LRIRSTSSPPRP	0.74 ± 0.015
LRKVIGVSFCLA	0.542 ± 0.049
LRLPPPPPLPHV	0.704 ± 0.033
LRMWFGLMRPDA	0.66 ± 0.034
LRNNKIKLIQKK	0.7809 ± 0.0034
LRNWIGGTLGGG	0.7 ± 0.0095
LRPASPVGRQTQ	0.691 ± 0.04
LRPFLFSALPLT	0.672 ± 0.01
LRPLKVSGGGRG	0.685 ± 0.045
LRPSPGYRLGIH	0.791 ± 0.1
LRPVPLCPAALL	0.695 ± 0.037
LRRPSPPTPSPP	0.86 ± 0.2
LRRVKSGPYFRF	0.684 ± 0.074
LRSLLYDKVISL	0.676 ± 0.055
LRSMSPPPHSLA	0.688 ± 0.058
LRTHPPGPLPLA	0.654 ± 0.12
LRTLALSYTSLT	0.664 ± 0.035
LRVRTLGLPLVY	0.569 ± 0.026
LRVYCVIPLSGM	0.526 ± 0.049
LSARVSYRITLR	0.599 ± 0.019
LSASAWCSSLTR	0.714 ± 0.047
LSCALCLLGFRC	0.647 ± 0.029
LSCFVFRLSWFL	0.556 ± 0.11

Sequence	protein stability index
LSCLFYSYSVSS	0.607 ± 0.068
LSDFFLDREGRV	0.654 ± 0.034
LSDIDLLGLPIL	0.66 ± 0.085
LSEDGGHRWHRI	0.796 ± 0.087
LSELCFAPRSPE	0.706 ± 0.046
LSFAVFIDFFTA	0.5223 ± 0.003
LSFFLFLLSPFY	0.582 ± 0.028
LSFFYLLSSYFL	0.62 ± 0.019
LSFLSDFCLWVL	0.659 ± 0.053
LSFPAPLPLFNT	0.767 ± 0.037
LSFSSLYFPSLC	0.651 ± 0.081
LSFTSVLGQIPV	0.705 ± 0.039
LSGVSGALVFVG	0.676 ± 0.047
LSLLFLSLSLLR	0.61 ± 0.042
LSLPHPSPLSFS	0.718 ± 0.038
LSLPSPRPPPSP	0.713 ± 0.063
LSLSVNLPLFPT	0.648 ± 0.067
LSNFLFYGLCPG	0.651 ± 0.081
LSNLQPPISVPL	0.6473 ± 0.006
LSPDSLGVLVEY	0.6272 ± 0.0058
LSPGCLFLLPFL	0.701 ± 0.066
LSPLLSLPRCPT	0.7 ± 0.04
LSPLPHGLPFST	0.736 ± 0.015

Sequence	protein stability index
LSPPLPRAPHLS	0.678 ± 0.077
LSPPQRISLIPY	0.659 ± 0.03
LSPPRSAPPPPR	0.699 ± 0.014
LSPSDSPSPPAS	0.6499 ± 0.0016
LSPTRPATRSPP	0.6826 ± 0.0014
LSQPRDGMRWCA	0.6191 ± 0.0035
LSRMTNFKEKEG	0.669 ± 0.03
LSSCVRVSFLFF	0.588 ± 0.028
LSSPPHVRSSPF	0.695 ± 0.029
LSSPPSRPFAPS	0.721 ± 0.089
LSSPSPSCSLPP	0.701 ± 0.077
LSSPTHTPHPPS	0.701 ± 0.0097
LSSSWDLTHFDC	0.714 ± 0.033
LSTPASVLLSSG	0.682 ± 0.011
LSTPPDLNPLIF	0.654 ± 0.034
LSVEAGRGELLW	0.69 ± 0.067
LSVGPIWFSCQA	0.605 ± 0.023
LSVLHATFGRCD	0.645 ± 0.017
LSVQVLSLRPRA	0.688 ± 0.036
LSYCLLALFFPL	0.501 ± 0.009
LTAGGGEACGPP	0.625 ± 0.015
LTFFRSSPPRPY	0.739 ± 0.031
LTGHVGNMWDAA	0.86 ± 0.025

Sequence	protein stability index
LTILEPYFLLGP	0.732 ± 0.21
LTILRSPLPSLS	0.701 ± 0.019
LTKTAHVGQLWL	0.708 ± 0.025
LTLLFLHPFPST	0.753 ± 0.1
LTNISKIKILRY	0.653 ± 0.032
LTRPHPPPVRTP	0.711 ± 0.083
LTSDGGLSGCSL	0.67 ± 0.029
LTWVVNSGKGRC	0.918 ± 0.087
LTYVQPTKGTLG	0.654 ± 0.05
LVCYHLSLPSVR	0.675 ± 0.052
LVDHLEMSTTSL	0.724 ± 0.017
LVFLGLCGTDFV	0.676 ± 0.12
LVFRSGWVSLIG	0.641 ± 0.044
LVGGRGSRSVEA	0.739 ± 0.12
LVGLCSVFPSLV	0.716 ± 0.008
LVHPPPPLLPPA	0.6 ± 0.018
LVKKVKSSLASL	0.65 ± 0.076
LVLERKVDSKRK	0.761 ± 0.084
LVLGRCWMSVPR	0.535 ± 0.014
LVLSGSAFFYLG	0.666 ± 0.029
LVLVEAPASRNP	0.72449 ± 0.00013
LVRCRKGEGRGA	0.701 ± 0.032
LVRDGQSHSVWN	0.655 ± 0.098

Sequence	protein stability index
LVRRTLWGSGCL	0.666 ± 0.013
LVSGCLCRKVLV	0.531 ± 0.0017
LVVSLSYSFRSV	0.585 ± 0.045
LWGSGVYGKNEC	0.703 ± 0.052
LWKAGRIGTIWS	0.714 ± 0.016
LWLCLERFPCSR	0.74 ± 0.042
LWPQFPPRQLVD	0.755 ± 0.069
LWPSLRRFHSTS	0.714 ± 0.2
LWVGGKRREVMG	0.706 ± 0.032
LWVPPRSGRFGG	0.681 ± 0.014
LWWASRLRVPTP	0.674 ± 0.093
LYCLVEGVYTLI	0.662 ± 0.06
LYGREPAGAEPT	0.633 ± 0.022
LYHARTIRQSAK	0.701 ± 0.018
LYPVPLSPPPAD	0.676 ± 0.026
LYVFFRFPSCLS	0.555 ± 0.018
MAINAGYYKWRH	0.767 ± 0.053
MALAVRVVNCGA	0.591 ± 0.0087
MATLRVPTLSPD	0.5743 ± 0.004
MAWTGIDAEVCV	0.67 ± 0.028
MCGENVSWSCRS	0.685 ± 0.038
MEDSRSDSSGSP	0.6534 ± 0.00074
